The record followed here is patent US20230357354A1, “CD38-BINDING CD31 PEPTIDES AND USES THEREOF” (ENCEFA, priority 2020, published 2023).

For test [1], the target named is recombinant His-tagged CD38 (human) (UniProt P28907). The test can be described thus: Pepscan ELISA, LOOP7 array; His-tagged CD38 in solution, anti-His HRP. For orientation: ELISA stands for enzyme-linked immunosorbent assay.
In test [2] the target is CD38 on cells of rat midbrain cultures (rat (cultures from Wistar rat embryos)) (UniProt Q64244). The test can be described thus: cell-based or functional assay.
CD38 on cells of rat midbrain cultures (rat (cultures from Wistar rat embryos)), sequence (Q64244 whole entry): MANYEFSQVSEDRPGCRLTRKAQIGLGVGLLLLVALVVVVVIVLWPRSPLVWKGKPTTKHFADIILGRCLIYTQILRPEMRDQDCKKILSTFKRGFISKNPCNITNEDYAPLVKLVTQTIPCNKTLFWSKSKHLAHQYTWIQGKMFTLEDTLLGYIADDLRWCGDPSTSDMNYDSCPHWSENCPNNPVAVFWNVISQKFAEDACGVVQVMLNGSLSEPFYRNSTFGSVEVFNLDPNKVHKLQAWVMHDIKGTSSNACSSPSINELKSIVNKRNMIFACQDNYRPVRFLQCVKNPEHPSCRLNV

Turning to CD31 peptide CEYOVLVEC (LOOP7), in test [1], the Value (Pepscan ELISA signal) was 651 mAU.
In turn, “murine sCD31 (SEQ ID NO: 18) (from UniProt Q08481 18-585) (ligand)” registered an EC50, prevention of MPP^+-induced DA cell loss in rat midbrain cultures in test [2] of 0.036 µg/mL.
